How the values were obtained:
[1] = biological target: Chloroflexus aurantiacus succinate dehydrogenase (CaSDH) monomer of SdhA, SdhB and SdhC (Chloroflexus aurantiacus J-10-fl (endogenous)); experiment: cryo-EM structure
[2] = biological target: Chloroflexus aurantiacus succinate dehydrogenase (CaSDH) monomer of SdhA, SdhB and SdhC (Chloroflexus aurantiacus J-10-fl (endogenous)); experiment: native gel or EMSA

stoichiometry N [1]: 3 | stoichiometry N [2]: 3
Substance: Chloroflexus aurantiacus succinate dehydrogenase (CaSDH) monomer of SdhA, SdhB and SdhC (complex)

— paper PMC12663545
